Experimental data published in patent US8105799B2, “Methods of screening compounds inhibiting signal transduction through inflammatory cytokines” (Chugai Seiyaku Kabushiki Kaisha, priority 1998, dated 2012).

Tests used:
[1] = system: peritoneal macrophages; assay: Cytokine production by LPS-stimulated peritoneal macrophages expressing TAK1-DN; format: cell-based; conditions: LPS 10 μg/ml, 24 hours, TAK1-DN Tgm-derived macrophages compared with wild-type mouse-derived macrophages, FIG. 4
Experimental: (§1) Specifically, 10 ml of ice-cold PBS solution containing 0.36% sodium citrate was injected into the peritoneal cavity of a TAK1-DN-expressing transgenic mouse (TAK1-DN Tgm) or a C57BL/6 mouse (wild-type mouse) of the same weeks of age. The mouse was given a massage for 30 seconds, and then the solution was recovered from the mouse. The solution recovered was centrifuged, and the precipitated cells were resuspended in RPMI1640 (GIBCO-BRL) containing 10% FBS (GIBCO-BRL). The cells were plated in wells at a cell density of 5×10^4/well. The cells were cultured at 37° C. for 2 hours, and floating cells were removed by washing with media. Cells adsorbed on the culture plate were used as peritoneal macrophages.
(§2) LPS, at a final concentration of 10 μg/ml, or IL-1α (Genzyme), at a final concentration of 10 ng/ml, was added to the above-prepared peritoneal macrophages, and the cells were further cultured for 24 hours. The culture supernatant was recovered. Then, the amounts of IL-1β in the culture supernatant of LPS-stimulated macrophages and IL-6 in the culture supernatant of IL-1α-stimulated macrophages were assayed by ELISA kits (Genzyme).

[2] = system: peritoneal macrophages; assay: IL-6 production by IL-1α-stimulated peritoneal macrophages expressing TAK1-DN; format: cell-based; conditions: IL-1α 10 ng/ml, 24 hours; TAK1-DN Tgm-derived macrophages compared with wild-type mouse-derived macrophages; ELISA; FIG. 5
Experimental: as §1, §2

[3] = system: IκBα degradation by proteasome (NFκB activation); assay: IκBα degradation in TAK1-DN expressing peritoneal macrophages stimulated by LPS and IL-1α (Western blot); format: cell-based, mouse; conditions: 30 and 60 minutes, TAK1-DN Tgm-derived macrophages, FIG. 6
Experimental: The macrophages derived from wild-type mice and from TAK1-DN Tgm, which were prepared as described above, were stimulated by LPS or IL-1, and the time course of degradation of IκBα by proteasome was monitored (0, 30, and 60 minutes). Specifically, the peritoneal macrophages were cultured in wells of a 96-well plate at a cell density of 1×10^6/well. LPS (1 μg/ml) or IL-1α (10 ng/ml) was added to the culture in the presence or absence of proteasome inhibitor MG132 (40 μM). The cells were harvested after 30 or 60 minutes.
The cells were washed with PBS (−), and then a lysis buffer was added thereto for the preparation of cell lysate. An aliquot of each lysate corresponding to about 2×10^5 cells was subjected to gel electrophoresis by 9% SDS-PAGE. The fractionated proteins were blotted onto a nitrocellulose membrane and then incubated with anti-IκBα antibody (SantaCruz) as a primary antibody for 1.5 hours. After wash, horseradish peroxidase-conjugated goat anti-rabbit antibody was used as a secondary antibody. After the reaction of the secondary antibody, the reaction product was detected by using ECL (Amersham).

[4] = biological target: T1, TAB1 (Homo sapiens, UniProt Q15750); assay: Animal cell two-hybrid assay in CHO cells (luciferase reporter); format: cell-based, hamster; conditions: pM-TAK1DN with pVP16-C68 (TAB1C68), 72 hours, FIG. 7
T1 construct: expressed in transfected cells; host or cells: CHO cells transfected with pVP16-C68
T1 sequence (Q15750 437-504): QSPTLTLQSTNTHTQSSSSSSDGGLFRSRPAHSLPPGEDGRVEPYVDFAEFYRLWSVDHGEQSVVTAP
Description: The animal cell two-hybrid system (Dang et al., (1991) Mol. Cell. Biol. 11, 954-962) using TAB1 peptide and TAK1 peptide was used to analyze whether or not a peptide (TAK1-DN) from Glu at amino acid 77 to Gln at amino acid 303 in the TAK1 peptide of SEQ ID NO: 2 is capable of inhibiting the binding between TAK1 peptide and TAB1 peptide and further capable of inhibiting TAK1 peptide activation in animal cells.
First, each of genes encoding full-length TAK1 and TAK1-DN was ligated with the gene encoding GAL4 DNA-binding domain (GAL4-BD) to prepare an expression vector. The gene encoding full-length TAK1 was obtained from yeast two-hybrid expression plasmid pBTMHu11F (Shibuya H. et al., (1996) 272, 1179-1182) by digesting it with restriction enzymes EcoRI and PstI. Subsequently, the gene was ligated between EcoRI and PstI sites of an expression vector pM (CLONTECH) containing the GAL4-BD gene to obtain an animal cell two-hybrid expression plasmid pM-TAK1. […]
The culture further continued for 72 hours, and then luciferase activities in each cell extract were assayed by using Dual-Luciferase™ Reporter Assay System (Promega). […] The efficiency of gene introduction was normalized by using measured values for the activity of Renilla luciferase derived from the introduced pRL-SV40.

luciferase activity (binding to TAB1) [4]: capable of binding to TAB1
B1: TAK1-DN: TAB1-binding region of TAK1, amino acid 77 Glu to amino acid 303 Gln of SEQ ID NO: 2; dominant negative inhibitor (protein, listed as Homo sapiens)
chain: ELRQLSRVNHPNIVKLYGACLNPVCLVMEYAEGGSLYNVLHGAEPLPYYTAAHAMSWCLQCSQGVAYLHSMQPKALIHRDLKPPNLLLVAGGTVLKICDFGTACDIQTHMTNNKGSAAWMAPEVFEGSNYSEKCDVFSWGIILWEVITRRKPFDEIGGPAFRIMWAVHNGTRPPLIKNLPKPIESLMTRCWSKDPSQRPSMEEIVKIMTHLMRYFPGADEPLQYPCQ
induction of production of IL-1β ([1]; ELISA): significantly inhibited | induction of production of IL-6 [1]: significantly inhibited | induction of production of TNF [1]: significantly inhibited | induction of IL-6 production by IL-1 stimulation [2]: significantly inhibited | degradation of IκBα ([3]; IL-1α 10 ng/ml): no remarkable degradation of IκBα | degradation of IκBα ([3]; LPS 1 μg/ml): no remarkable degradation of IκBα
